# The DeepSol protein solubility set
# Test: soluble on expression in E. coli; label from the status in PepcDB or PDB records
row,Sequence,soluble on expression in E. coli
1,ADIVNLQGVTGGNTYSVPAVTMDLLSGKDVAVEEFPRKLLTFKEKLGEGQFGEVHLCEVEGMEKFKDKDFALDVSANQPVLVAVKMLRADANKNARNDFLKEIKIMSRLKDPNIIHLLAVCITDDPLCMITEYMENGDLNQFLSRHEPPNSSSSDVRTVSYTNLKFMATQIASGMKYLSSLNFVHRDLATRNCLVGKNYTIKIADFGMSRNLYSGDYYRIQGRAVLPIRWMSWESILLGKFTTASDVWAFGVTLWETFTFCQEQPYSQLSDEQVIENTGEFFRDQGRQTYLPQPAICPDSVYKLMLSCWRRDTKNRPSFQEIHLLLLQQGDE,not soluble
2,MNLDDIESLSEQIARHIGEQIITGELVEGERIQELRIAKELDVSRGSVREALLLLERTHLIEIFPRRGAIVSEMSSQQVKALFDSSVLVLGHIVQKISESWRVHEAEQLQHLIEQLNEHVKAGDTEKFYDGIFEYLAQQHDMVMNAYLMKFYKELLPSLRRSYFLTLNTSRRELQEALALFKLVTDAILIRKSHQATLFMEDFCRHLRNLVLESLTRMKQIELAWARRSRRSSNR,not soluble
3,AIAKLTDSVLRSFRVAKVFRENSDKINCFDFSSNGETVISSSDDDSIVLYDCQEGKPKRTLYSKKYGVDLIRYTHAANTVVYSSNKIDDTIRYLSLHDNKYIRYFPGHNKRVVALSMSPVDDTFISGSLDKTIRLWDLRSPNCQGLMHLQGKPVCSFDPEGLIFAAGVNSEMVKLYDLRSFDKGPFATFKLQYERTCEWTGLKFSNDGKLILVSTNGGTLRVLDAFKGAVLHSFGGYNNSKGVILEAPFTPDSQFIMIGSEDGKIHVWNAESGMKVALLDGKHTGPVTCLQFNPKFMTFASACSNMAFWLPTIDD,soluble
4,MSLGTDLLESGEGNKYLVVEKHLKQAINGGVYQADDRLPSIRSLSQELNVSKNTVIRAYQELEAQNLVYSVPKSGYRVKVALPTSRSIPDPTRVDLLSICKEILTYPEYQERLPAGSAHPNIDSPAIKSLYAEIGRHSRQQTHVPSHYQLPPGDHLLIKQLAKITQDLGTPAKLDEIMVTHGAQQAISLALRATTQKGDIVAVESPCYFGNLLMLESLGLKVVEIPSCPRDGMCPEALAKTMATWDIKALIVTPNFTNPTGAMMPLEKRQQLLLASGNIPIIEDDVFGGLSYDKPLPSLSLLDDKQRVIYVNSLSKTLDSRLRIGWMLAGRYRDQIEQYLLCENMGSLNLMQSAVATFLTSGKYRTHTARMGRVYQNNMRRFIQMLHQYLDEYESLKNRYQINAVQGSFLLWLRLPEDTDSYALYQACNKHRISLLPGTVFGTQEQYRHCVRLSVANFGHETDWSHAMQTLAKLIAKRVCEGHHHHHH,not soluble
5,MAHHHHHHMAAVFSTDASPSADVAVTAQFRVARGEYPTLAVLKQVPLLDDEALRLAMEKLAARRAGHTAGGGADGEPEGVDYTRYTTVDGEGTQACPCKDTGVWPAWVFSPGIQLMARRLRVRELSLEFLSLIDSMMAVNPADRPTAEAVLLDSPVFGMRMPWWEKVVEKAVRRVVEGKENVLLDVCVGDSDEEEEEDEEEAALVRRTMMPLVLPAENHGYVPHNVIHWWNVDLTRGEPDHTKWLSPTSLLASLLTTVRDLTGLEAARDAQDPVLREVPLYTATSLQFVERVCVPVRGTDVSARKIEDGPLFRELEAGGHSTGFFIHVQIRIRAIARAGQVLMANGWAEEEDVADQEEMARRAMEELVATTEKWLLSREATTGVAALHVLPWVSWHLNEEEAGTDGSTQHCFIVEYAAAGPGDGQPQPCANESSVTGEVSSVFRDWRANLTDGLQRLCCDDATAPDETTHDGASNAPRGGLRLEEKLEAMLDALEAVESELMERQKRNEAHQGLLQDHVVHWLSVRAAPSVERCMETLQGVCGGGDVSSQQIHEWILTTVFTSEGAMALMPVLRI,not soluble
6,MGSDKIHHHHHHMRDTWRWTMTQNKRSGNRRTPTPELDSASLVPPTVPSVVDDVEGGKPNTVEFRATYSPLRVEFHPWANSHPEIDEEYLFLYWNDVLVDKKTFSKPIEPEELFILVPVDKLIEGPHRLHYEVTLYSDTHVSSRPLDIYIDKTPPLLPADDRLMLPDYVIREGVTEEYLAANGDKLVCTVPSFIGAEPGDVVKWFYSENGAGQEMVDMMTLTQEHIETLGPLGTSKPLELTFPGAFIRQSGNGTRYVRYEVQDRAGTQPQRALAVALESDLSLAPRELPPPRIKEAKGSDYQSTLEPGNAFDGVTFVIPDDADIRPNETVTVFWGQPGTLGGYSTSTPISPGALEYLIPSQYVPPHMSGRVELYYQIDKPDVPPSPSHYVTVRKIEGLPIVQCSDIRNRALNLRTLGESTTFTLESWPFRHTSQFVNAWIDGVESGNVTREIRLPIATALPVPSETGVMVLGSVTKTELLRLAINYQFRVSVEVSFDDKLSWLKFPDAAAQLEDKP,not soluble
